Earlier results, collected in PMC4958339.

Tests used:
Pins/LGN = Pins/LGN (UniProt Q8VDU0)
Lgl = Lgl (UniProt P08111)
UniProt P08111, sequence (P08111 648-670): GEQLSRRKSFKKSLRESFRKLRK

UniProt Q8VDU0, sequence (Q8VDU0 392-414): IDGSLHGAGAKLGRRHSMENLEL

Kd (Pins/LGN): 0.33 µM
Kd (Lgl): 10.2 µM
Substance: Dlg GUK (from UniProt Q12959)
